Measured values reported in the domain aggregation screens of Martell et al. (2025).

assay: soluble fraction after stress (log2 fold change); higher = more stays soluble; pooled small domains, quantitative proteomics; conditions: stress: 50 degC
Method in brief: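 Custom libraries of small protein domains were pooled and measured in a high-throughput format, with quantitative proteomics as the read-out. Each library was stressed at 50°C. The value is the log2 fold change in the amount of each protein that stays soluble after stress, used as a measure of aggregation propensity; higher values mean more of the protein stays soluble.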

| Sequence | soluble fraction (log2) |
| --- | --- |
| HMSKKMTNEEILNFLKKVLIKHGKISGFIIDEDDNGPSSSVVASRFGGLLNAYKLINYTPER | -0.506 |
| HMNYSKQRETILKVLRSTRSHPSVNWIYENVKKEIPDVGLATVYRNLKQLEAAGEIMRIQGDFPEERWDGF | -0.911 |
| HMAAFGDLLSELRRDMNMTQDELAKVLFVSPGTISNYENNIHFPDVPKLKQIAQYFGVTTDYLLG | -0.405 |
| HMDNPNVMAQVKSLLASKGLSEQEVKERLKAKGLNIDAMSDAEIAQNRSVIEQTIAELEAEKKKAG | -0.128 |
| HMTSLYDILGIAKTADSQTIKTAFKKKALLYHPDKNNGNLKKEEIFKKISTAYQILSDPKSRANYDLSIA | -0.115 |
| HMLPLPRFASLDSSEANLRAGPGKDYPILWVYQRKGLPVEIIQEFDTWRRIRDRDGTVGWVQQNLL | -0.405 |
| HMIGGEDEILKVVLEVLEEKPEAIEQYKNGRTNIVDFLVGQVMKKTRGQANPATTREFMIREIEK | 0.0588 |
| HMLNERQKKIIKILKDNKNWMTGKELSEFLNVSDRTIRSDIEYINRYNNALIESNVKNGYHLNFE | 0.12 |
| HMGNKWKPIILYLLSNGSMRFGMLNALIPTISKKVLTNQLKELENDGLLLRQSFAEIPPRVEYSLTEKA | -1.58 |
| HMANADVVLVDLDKEYTVDAAKFHSVVKHSPFNGFAVKGAPVLTIVRGTVVAENGEVVGQPGHSKMVRP | -0.0579 |
| HMAQIVNLPRKNVNGASYYYYEVQPKETIYSISRKLGVSGAEIQRHNPSVADGLKIGQVLYFPAEG | 0.0843 |
| HMAIKNKNEQLEAIIKFADLRGEFKTADIEELLSIKSSRARLLISELVKIGKLESIGSNRNRRYHIK | -0.52 |
| HMPKKLIWERTTSKLQLYITQDRYELKTPLMTIPFTSKSKMMVYLQQRYHLDMQEYRQIYDAG | -2.21 |
| HMEHTPHGVALLRTLMDQYGLKAADLANELGSKSNVSNILNGRRALTVSHIKMLAERFNLPADAFI | -0.914 |
| HMTVLVPNLTGKTLLEAEILLDQAGLKKGDVYSESNKNVPKDHIIRQKPAPNTKIQKGATIDIYRSLGPE | 0.133 |
| HMTVIARQIPPLVPRMLDGLEAFIKLDVPFEEKERLARVQMLRSSLDRDNLDTAEIFRAVLEAYNIELQY | 0.0196 |
| HMNDTLQEYFEALERLKSNNPINVPKNTKINNDSVALEAGRKRGSIKKSREIFAELIEAINNAS | -0.0859 |
| HMSDAQIKASINDLWFKYNLETFAKLNLNVNQGRVLVTGIVQNPEHRLEAIRLVWTVDGVQQVINEIQVAE | -0.795 |
| HMIYMIDPNDEIAVKLDEIYQRYLNRTIDPEGLIFFYNQIRNAQMGYSDVEKRILESPEYVSIPK | -0.242 |

| Sequence | soluble fraction (log2) |
| --- | --- |
| HMPNGEAYQRFTYENDILEGRFEEWDSLGTDIVKGDYTAGVRHKKWLYYDSEGRRDKFVFLDMDSI | 0.0763 |
| HMGTPKMPLSLYLSMVENLRSLKRFALVNQQVKDGFVFFNDVAGIKRLQELLNYHNTGEKPSE | -1.39 |
| HMPQLVGDVDGDGRVSVTDGEWIRASYGALPWYAGWRAAADLDGSRKIDVVDLELLRTKMGN | -0.191 |
| HMYRPQQEFTMRDLFQNNLNGSESASVRRDALGAELGIGYGNAKRFLERLNHYGVSREEFTAALEKLESE | -0.224 |
| HMPVPSPAEQTATQLANIERHTGITVDGWTRAIAEAGAAKHGEIVAWLKQQGLTHGNANALAHAVRARQSG | 0.27 |
| HMTIAFPSNDVDAVVGYFESRGFDRTASISTATVILQQAKIDGVKVFELIDTLQGMDKVQLSYIVTEILN | 0.03 |
| HMASVDDILDRFKQAAKVTTDADLAKVLGLSRQSIAAARLRAKIPASWFPKMSSLFNISTEWLYRG | -0.628 |
| HMVISNDEFEDYLNRATEQLVSELSSGKNPRDAVHDLALTFADQHNKSYDAYQRMADSLEARMHTL | 0.0885 |
| HMITLKKRRQEAILEIIEKYDLSTQDELLQKLKDSGFDATQATVSRDIKELRLVKTMGANGQYKYAVT | -0.403 |
| HMPTTTFENLPDAKKKTIIAALLKEFSQSPLSKAQVAPIVKESQIARGAFYKYFVDLTDAYTYLYRQ | -0.204 |
| HMVEYIENINLSEKQKFIAHEILKEIRGRAIFLRDVGLDYLNLSRKAGTLSGGEAQRIRLATQIGSA | 0.226 |
| HMSTKRQKELLEYVDRFITEHGYGPSYREIMNAIGYKSVSTVAIHIDGLIAKGYLRKRDNSARSLEVV | -0.716 |
| HMAARKDLIAGEDAEGRLDAWLAAALDGEFSRNRVKALIEQGAVAINDVAVTEPKRKIRPGDRLSIVLPEP | 0.339 |
| HMSNTPHSREVLLEMDAVRRLLAVGEEKGEVDRADLQGAFEEAELGRGDLDGVLSILREYDVPLAR | 0.0709 |
| HMLQIGDEEFIENIVKQVIDENQKAVDDYKKGKEKVMAFLIGQVMKKTKGKVNSEIVEKTIKKL | -0.262 |
| HMSVLQGLIESFKAGDRNLYEVAERLNVTEPFLAEALKDYRARFPKGVQVDNFWISFRPYLTIAEV | -1.41 |
| HMASLSRRELEVLELLALRLTVKEVAERLVISELTAKRHTSNIYQKLGVNRRRDALAAAQARGLLGAR | -2.9 |
| HMDYEVPEELEEKFSENPQFKEAFDNLTPGRQHQYIYHISQAKRSQTRINRIEKYYEHILNGKGMQD | 0.0659 |
| HMIEINNLEDLKLMKEFILKNGKYGFGVFVGGKYIGLSDIGSVNSFKDTLGLPVVSLGNDDFKRFTEAH | -0.658 |
